Patent US20120039865A1, “IDENTIFICATION OF SORTILIN AS A NEURONAL RECEPTOR FOR THE FRONTOTEMPORAL DEMENTIA PROTEIN, PROGRANULIN” (Yale University, priority 2008, published 2012)
“Also recorded” adds a separate entry of the source.

T1: Sort1 (Mus musculus, UniProt Q6PHU5)
T1 construct: Brain lysate was prepared from mouse brain by homogenization in RIPA buffer; from tissue; host or cells: mouse brain lysate (RIPA buffer)
T1 sequence (Q6PHU5 74-825): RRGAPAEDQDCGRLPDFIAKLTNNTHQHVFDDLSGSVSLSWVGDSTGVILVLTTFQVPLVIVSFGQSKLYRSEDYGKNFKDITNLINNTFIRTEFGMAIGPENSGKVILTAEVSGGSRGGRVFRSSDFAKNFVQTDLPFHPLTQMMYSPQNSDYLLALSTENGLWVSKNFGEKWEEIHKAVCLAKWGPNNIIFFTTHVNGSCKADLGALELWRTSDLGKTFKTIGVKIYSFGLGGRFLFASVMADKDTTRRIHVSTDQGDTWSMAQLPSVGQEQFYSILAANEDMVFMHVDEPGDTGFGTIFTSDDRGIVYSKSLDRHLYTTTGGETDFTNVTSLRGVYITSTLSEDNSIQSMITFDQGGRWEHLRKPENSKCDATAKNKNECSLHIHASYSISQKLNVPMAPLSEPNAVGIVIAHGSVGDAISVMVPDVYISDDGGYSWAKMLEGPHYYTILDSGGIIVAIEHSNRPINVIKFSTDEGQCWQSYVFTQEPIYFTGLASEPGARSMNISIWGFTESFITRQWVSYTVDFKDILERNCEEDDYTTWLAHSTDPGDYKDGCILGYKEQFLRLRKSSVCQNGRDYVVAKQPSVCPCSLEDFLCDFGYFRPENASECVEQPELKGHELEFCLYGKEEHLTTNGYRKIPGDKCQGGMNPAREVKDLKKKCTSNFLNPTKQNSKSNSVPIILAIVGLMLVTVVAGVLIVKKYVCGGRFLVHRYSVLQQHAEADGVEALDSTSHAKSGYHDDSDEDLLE

T2: sortilin-1 (Sort1; PGRN-R) (Mus musculus, UniProt Q6PHU5)
T2 construct: host or cells: COS-7 (ATCC No. CRL-1651)
T2 sequence (Q6PHU5 74-825): T1 sequence (Q6PHU5 74-825)

T3: sortilin (Homo sapiens, UniProt Q99523)
T3 sequence (Q99523 78-831): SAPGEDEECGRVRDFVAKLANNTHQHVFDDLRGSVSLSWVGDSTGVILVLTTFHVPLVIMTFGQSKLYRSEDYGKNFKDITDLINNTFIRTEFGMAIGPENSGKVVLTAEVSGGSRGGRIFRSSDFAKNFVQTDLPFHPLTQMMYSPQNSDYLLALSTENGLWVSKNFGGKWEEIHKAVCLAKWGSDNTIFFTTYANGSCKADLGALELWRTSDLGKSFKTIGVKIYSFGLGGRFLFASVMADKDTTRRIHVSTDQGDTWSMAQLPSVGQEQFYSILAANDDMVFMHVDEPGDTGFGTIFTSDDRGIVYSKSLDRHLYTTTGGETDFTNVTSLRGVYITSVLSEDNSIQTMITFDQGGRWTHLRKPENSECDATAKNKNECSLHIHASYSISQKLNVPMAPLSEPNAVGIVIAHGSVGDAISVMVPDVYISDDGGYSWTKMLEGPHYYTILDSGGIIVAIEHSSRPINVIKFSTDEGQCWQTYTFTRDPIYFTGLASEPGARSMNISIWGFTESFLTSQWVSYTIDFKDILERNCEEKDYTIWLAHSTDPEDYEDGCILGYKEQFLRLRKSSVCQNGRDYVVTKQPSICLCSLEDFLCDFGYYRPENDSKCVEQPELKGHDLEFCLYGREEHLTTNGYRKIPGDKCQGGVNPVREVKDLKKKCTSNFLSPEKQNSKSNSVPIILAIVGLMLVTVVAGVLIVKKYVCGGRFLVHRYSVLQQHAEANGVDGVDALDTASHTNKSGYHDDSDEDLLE

B1: GST-PGRN: glutathione S-transferase (GST) fused to the C-terminal segment of PGRN (amino acids 495 to the end), produced in E. coli (protein)
chain: CEKEVVSAQPATFLARSPHVGVKDVECGEGHFCHDNQTCCRDNRQGWACCPYRQGVCCADRRHCCPAGFRCAARGTKCLRREAPRWDAPLRDPALRQLL
modifications: left off: a dimerising Fc or GST
notes: glutathione S-transferase (GST) fused to the C-terminal segment of PGRN (amino acids 495 to the end), produced in E. coli
B2: PGRN: progranulin protein; unlabeled/untagged competitor in binding assays, purified Flag-PGRN in Example 2 cultures (protein)
chain: TQCPDGQFCPVACCLDQGGANYSCCNPLLDTWPRITSHHLDGSCQTHGHCPAGYSCLLTVSGTSSCCPFSKGVSCGDGYHCCPQGFHCSADGKSCFQMSDNPLGAVQCPGSQFECPDSATCCIMVDGSWGCCPMPQASCCEDRVHCCPHGASCDLVHTRCVSPTGTHTLLKKFPAQKTNRAVSLPFSVVCPDAKTQCPDDSTCCELPTGKYGCCPMPNAICCSDHLHCCPQDTVCDLIQSKCLSKNYTTDLLTKLPGYPVKEVKCDMEVSCPEGYTCCRLNTGAWGCCPFAKAVCCEDHIHCCPAGFQCHTEKGTCEMGILQVPWMKKVIAPLRLPDPQILKSDTPCDDFTRCPTNNTCCKLNSGDWGCCPIPEAVCCSDNQHCCPQGFTCLAQGYCQKGDTMVAGLEKIPARQTTPLQIGDIGCDQHTSCPVGQTCCPSLKGSWACCQLPHAVCCEDRQHCCPAGYTCNVKARTCEKDVDFIQPPVLLTLGPKVGNVECGEGHFCHDNQTCCKDSAGVWACCPYLKGVCCRDGRHCCPGGFHCSARGTKCLRKKIPRWDMFLRDPVPRPLL

Legend:
Sort1 = target: T1, Sort1; experiment: Affinity chromatography pull-down of Sort1 from brain lysate; assay type: binding; conditions: wild type brain lysate or extract
Procedure: For affinity chromatography, glutathione S-transferase (GST) fused to the C-terminal segment of PGRN (amino acids 495 to the end) was produced in E. coli as a 45 kDa protein and then purified on glutathione-sepharose resin. Brain lysate was prepared from mouse brain by homogenization in RIPA buffer and then incubated with the GST-PGRN containing resin. After washing, bound protein was eluted with SDS and analyzed by anti-sortilin immunoblot. […] Thus, it can be unexpectedly concluded from these studies that PGRN and sortilin interact in a ligand/receptor-type complex on the cell surface.

[1] = target: T2, sortilin-1 (Sort1; PGRN-R); experiment: AP-PGRN binding to COS-7 cells transfected with Sort1 cDNA
Procedure: (§1) Rat (Sprague-Dawley) cortical neurons were isolated from E18 embryos and cultured in vitro for 3-21 days. Cultures were maintained in Neurobasal-A medium supplemented with B27, GLUTAMAX™ (2 mM), sodium pyruvate (1 mM), penicillin, and streptomycin. The binding of 10 nM AP-PGRN or 10 nM AP was detected as a dark reaction product produced by alkaline phosphatase (AP). Binding was measured as follows. The AP tagged ligand (in NBA) was incubated with the cortical neurons for 1 hr at 4° C., washed three times with HBH buffer, fixed with formaldehyde, and after washing again with HBH the neurons were incubated in a 67° C. oven to inactivate the endogenous AP. The tagged AP was then visualized using AP substrate 5-bromo-4-chloro-3-indolyl phosphate/nitro blue tetrazolium, which results in a dark precipitate. […] The addition of 100 nM Flag-PGRN displaced 10 nM AP-PGRN (FIG. 1C, middle panel).
To determine the molecular nature of the neuronal binding site of PGRN, expression cloning experiments utilizing AP-PGRN as a tagged ligand were conducted. COS-7 (ATCC No. CRL-1651) cells were transfected with expression vectors containing mouse cDNAs using FUGENE® 6 according to manufacturer's specifications (Roche). […]

sortilin = target: T3, sortilin; experiment: PGRN binding to sortilin of human origin; conditions: data not shown
Source text: The human SorLA expression vector was provided by Anders Nykjaer, M.D., Ph.D., Aarhus University, Aarhus, Denmark (Jacobsen, L., et al., J. Biol. Chem. 276:22788-22796 (2001); Gliemann, J., et al., Biochem J. 381:203-212 (2004); GenBank Accession No. U60975), and the mouse SorCS1 expression vector in pCMV-Sport6 was obtained from Open Biosystems (GenBank Accession No. BC007486). […] A fragment of PGRN, termed PGRN-E in the literature, binds to sortilin with the same affinity as does full length PGRN (data not shown).

[2] = test system: cortical neurons from E18 rat embryo cerebral cortex; experiment: Apoptosis assay (cleaved caspase 3) in cortical neuron cultures; assay type: cell-based; conditions: 100 nM, 36 hours, vs vehicle; 7 days in vitro
Procedure: In order to examine the PGRN-Sort1 interaction and the effects of PGRN on cerebral cortical cultures, apoptosis assays were performed. Cultures of cortical neurons were established from E18 rat embryo cerebral cortex, as described above, and maintained for 7 days in vitro. Then, the cells were exposed to vehicle or 100 nM purified PGRN protein for 36 hours. The cultures were maintained as mentioned above, and Flag-PGRN diluted in PBS or PBS vehicle were incubated in the cultures for 36 h. Thereafter, the cells were fixed with FA 15 mts and stained with anti-cleaved caspase 3 antibody (Cell Signaling) to detect apoptotic cells (FIG. 6A; shown in white) and with DAPI to detect all nuclei (FIG. 6A; shown in gray). […] These finding may relate indirectly to one study of immortalized cells linking PGRN to caspase-mediated cleavage of TDP43 (Zhang, Y. J., et al., J. Neurosci. 27:10530-10534 (2007)).

[3] = target: Rat (Sprague-Dawley) cortical neurons; experiment: AP-tagged ligand binding to cultured rat cortical neurons; conditions: saturation analysis, FIG. 1D; read-out: affinity of neuronal binding sites for PGRN
Procedure: as §1

[4] = test system: Cortical neurons isolated from E18 rat embryos; experiment: Neurite outgrowth assay in cortical neurons; assay type: cell-based; conditions: 100 nM, 1 day in vitro, vs vehicle
Procedure: To further examine the PGRN-Sort1 interaction, neurite outgrowth assays were performed. Cortical neurons were isolated from E18 rat embryos and cultured for 1 day in vitro with or without 100 nM purified Flag-PGRN protein, as described above. Neurites were then visualized with an anti-Beta III tubulin (Promega) using an automated image acquisition. Neurite outgrowth analysis was done using ImageXpress (Molecular Devices), and average neurite length was calculated. […] Although this finding differs from a recent report (Van Damme, P., et al., J. Cell Biol. 181:37-41 (2008)), it is possible that cell survival is the primary action of PGRN, and any outgrowth effect is secondary.

[5] = test system: mouse E17 cortical neurons; experiment: AP-PGRN binding to mouse cortical neurons (wild type, sortilin +/- and -/-); conditions: 100 nM unlabeled competitor against 5 nM AP-PGRN, 1 hr preincubation
Procedure: as §1
Binding was measured according to the methods described above by preincubating 100 nM PGRN with the cortical neurons for 1 hr and using a 5 nM AP-PGRN and 100 nM untagged PGRN mixture. […]
Gene-targeted sortilin −/− and +/− mice from Anders Nykjaer, M.D., Ph.D., Aarhus University, Aarhus, Denmark, were used to obtain cultures of cortical neurons. The binding of 2 nM AP-PGRN to cortical neurons isolated from sortilin −/− (FIG. 3B, left panel) and +/− (FIG. 3B, right panel) mice was evaluated. […]

Molecule | pull-down of Sort1 (anti-sortilin immunoblot) (Sort1) | displacement of AP-PGRN binding ([1]; 100 nM untagged competitor against 5 nM AP-PGRN) | binding to sortilin of mouse origin ([1]; data not shown) | binding to sortilin of human origin (sortilin) | number of cells positive for cleaved caspase-3 [2] | Kd [3] [nM] | cortical neurite outgrowth (βIII tubulin) [4] | displacement of AP-PGRN binding [5]
B1 | immunoreactive Sort1 band was detected | – | – | – | – | – | – | –
B2 | – | displaceable | binds | binds | less | ~20 | No PGRN-induced change; also recorded: no significant difference | displaced
